We go through two molecules from US20110045007A1.

The target of one assay is 2F8-HG F273A (human). The assay is described as follows: non-covalent nano-electrospray mass spectrometry, 1 µM; self-association.
A further assay concerns the target 2F8-HG F273L (human). Described as above.

Substitutions are numbered along the chain they refer to. Names may count otherwise.

B1: 2F8-HG F273A (antibody, part only; not given: 2F8 variable domains, not shown: a dimerising Fc or GST)
heavy, part: ASTKGPSVFPLAPCSRSTSESTAALGCLVKDYFPEPVTVSWNSGALTSGVHTFPAVLQSSGLYSLSSVVTVPSSSLGTKTYTCNVDHKPSNTKVDKRVAPEFLGGPSVFLFPPKPKDTLMISRTPEVTCVVVDVSQEDPEVQFNWYVDGVEVHNAKTKPREEQFNSTYRVVSVLTVLHQDWLNGKEYKCKVSNKGLPSSIEKTISKAKGQPREPQVYTLPPSQEEMTKNQVSLTCLVKGFYPSDIAVEWESNGQPENNYKTTPPVLDSDGSFALYSRLTVDKSRWQEGNVFSCSVMHEALHNHYTQKSLSLSLGK
Molecule B1 displayed a percentage molecules present as monomers with 2F8-HG F273A (human) of over 80%.

B2: 2F8-HG F273L (antibody, part only; not given: 2F8 variable domains, not shown: a dimerising Fc or GST)
heavy, part: B1 heavy, part with A273L
Consider B2, for which the percentage molecules present as monomers with 2F8-HG F273L (human) was over 80%.
